Target: HIV-1 integrase wild-type (IN1-288) (Human immunodeficiency virus 1) (UniProt P04585)
Assay: inhibition
Settings: I = deoxyinosine; PS at first and last linkage; 3'-processing column as printed; strand transfer column 0.070

IGGIIGGIIGGIIGGI [T30721]
IC50: 88 nM

Source: patent publication US6288042
